Data as given in patent US6858210B1, “Therapeutic and diagnostic domain 1 β2GPI polypeptides and methods of using same” (La Jolla Pharmaceutical Co., priority 1998, dated 2005).
Where two headings read alike, the source gives them in different places.

What was measured:
rabbit anti-β2GPI = assay: Direct binding ELISA, nickel chelate-coated wells, rabbit antibody; conditions: O.D. at 550 nm
Outline: (§1)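 His-tagged recombinant β2GPI mutants captured on nickel chelate wells in serial dilution (2 h, room temperature), no anionic phospholipid; GST-6his as negative control. Affinity-purified patient antibodies (11 patients) or rabbit anti-β2GPI detected by alkaline phosphatase anti-IgG, OD 550 nm.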

[1] = test system: affinity purified β2GPI-dependent antiphospholipid antibody; assay: Direct binding ELISA, nickel chelate-coated wells charged with recombinant β2GPI proteins (no cardiolipin); parameters: species or system human; conditions: O.D. at 550 nm
Outline: as §1

[2] = test system: affinity purified β2GPI-dependent antiphospholipid antibody; assay: Competitive inhibition ELISA: recombinant β2GPI proteins compete for antibody binding to coated full length recombinant β2GPI; parameters: species or system human; conditions: for IC50: read-out: 50% (concentration to give 50% inhibition)
Outline: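 Wells coated with full-length recombinant β2GPI (10 μg/ml, pH 9.5) and milk-blocked. Serially diluted recombinant β2GPI proteins were co-incubated with a fixed concentration of patient antibody for 1 h at 37 °C. Bound IgG detected with alkaline phosphatase anti-human IgG at OD550; percent inhibition is background-corrected against inhibitor-free wells.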

- Max (maximum inhibition observed at concentrations tested) ([2]; Ab 6203): 10%
- IC50 ([2]; Ab 6203): > 57 µM
- Max (maximum inhibition observed at concentrations tested) ([2]; Ab 6501): 20%
- IC50 ([2]; Ab 6501): > 57 µM
- Max (maximum inhibition observed at concentrations tested) ([2]; Ab 6509): 20%
- IC50 ([2]; Ab 6509): > 16 µM
- Max (maximum inhibition observed at concentrations tested) ([2]; Ab 6626): 18%
- IC50 ([2]; Ab 6626): > 57 µM
- Max (maximum inhibition observed at concentrations tested) ([2]; Ab 6632): 20%
- IC50 ([2]; Ab 6632): > 57 µM
- Max (maximum inhibition observed at concentrations tested) ([2]; Ab 6641): 20%
- IC50 ([2]; Ab 6641): > 16 µM
- Max (maximum inhibition observed at concentrations tested) ([2]; Ab 6644): 10%
- IC50 ([2]; Ab 6644): > 57 µM
- Max (maximum inhibition observed at concentrations tested) ([2]; Ab 6652): 40%
- IC50 ([2]; Ab 6652): > 16 µM
- Max (maximum inhibition observed at concentrations tested) ([2]; Ab 6701): 10%
- IC50 ([2]; Ab 6701): > 16 µM
- Max (maximum inhibition observed at concentrations tested) ([2]; Ab 7008): 20%
- IC50 ([2]; Ab 7008): > 57 µM
- Max (maximum inhibition observed at concentrations tested) ([2]; Ab 7015): 10%
- IC50 ([2]; Ab 7015): > 57 µM
- Max (maximum inhibition observed at concentrations tested) ([2]; Ab 7101): 5%
- IC50 ([2]; Ab 7101): > 57 µM
- Max (maximum inhibition observed at concentrations tested) ([2]; Ab 7104): 10%
- IC50 ([2]; Ab 7104): > 57 µM
B1: -2345: recombinant β2GPI deletion mutant with domains 2-5 (protein)
chain: GRTPRVCPFAGILENGAVRYTTFEYPNTISFSCNTGFYLNGADSAKCTEEGKWSPELPVCAPIICPPPSIPTFATLRVYKPSAGNNSLYRDTAVFECLPQHAMFGNDTITCTTHGNWTKLPECREVKCPFPSRPDNGFVNYPAKPTLYYKDKATFGCHDGYSLDGPEEIECTKLGNWSAMPSCKASCKLPVKKATVVYQGERVKIQEKFKNGMLHGDKVSFFCKNKEKKCSYTEDAQCIDGTIEVPKCFKEHSSLAFWKTDASDVKPCGHHHHHH
- Maximum O.D. (rabbit anti-β2GPI): 1.873
- Maximum O.D. ([1]; Ab 6203): 0.074
- Maximum O.D. ([1]; Ab 6501): 0.018
- Maximum O.D. ([1]; Ab 6626): 0.008
- Maximum O.D. ([1]; Ab 6632): 0.031
- Maximum O.D. ([1]; Ab 6641): 0.045
- Maximum O.D. ([1]; Ab 6644): 0.041
- Maximum O.D. ([1]; Ab 6652): 0.008
- Maximum O.D. ([1]; Ab 6701): 0.002
- Maximum O.D. ([1]; Ab 7008): 0.019
- Maximum O.D. ([1]; Ab 7015): 0.114
- Maximum O.D. ([1]; Ab 7101): 0.056
